From paper PMC3005623 (Journal of molecular biology, 2010) come the findings set out here.

The target in data set [1] is Cdc3–Cdc11–(His)6–Cdc12-Cdc10(Δ12–28) complex (Cdc11-Cdc12-Cdc3-Cdc10(Δ12–28) hetero-tetramer) (S. cerevisiae) (UniProt P32457). The experiment in a line: negative-stain electron microscopy.
Data set [2] has the same target. The experiment in a line: negative-stain electron microscopy. This is another data set of the same source.
Data set [3] deals with the molecule itself. In words: electron microscopy of lipid monolayers.
Data set [4] concerns the molecule itself. In words: negative-stain electron microscopy.
For data set [5], the target named is Cdc12(Δ318–407) (S. cerevisiae). The experiment in a line: negative-stain electron microscopy.
Data set [6] concerns the molecule itself. In words: negative-stain electron microscopy. The source holds these as a separate data set.
Data set [7] deals with the molecule itself. In words: negative-stain electron microscopy. This is another data set of the same source.

Residue numbers refer to the chain shown, from its start. Names may count otherwise. Read-outs that look alike come from different tables or passages of the source.

In data set [1], “Cdc3–Cdc11–(His)6–Cdc12-Cdc10(Δ12–28) complex (Cdc11-Cdc12-Cdc3-Cdc10(Δ12–28) hetero-tetramer) (from UniProt P32457 1-520; P32458 1-415; P32468 1-407; P25342 1-322)” registered a percent of particles that are heptamers of 18.2%, a percent of particles that are hexamers of 10.8%, a percent of particles that are octamers of 21.8% and a percent of particles that are pentamers of 8.03%. For the same molecule, the percent of particles that are tetramers in data set [1] was found to be 41.3%. Also, in data set [2], the percent of particles that are tetramers worked out at 88.3% and the percent of particles that are trimers was 11.7%.

B1: Cdc3(G261V) (natural protein, S. cerevisiae, UniProt P32457 1-520, looked up)
chain: MSLKEEQVSIKQDPEQEERQHDQFNDVQIKQESQDHDGVDSQYTNGTQNDDSERFEAAESDVKVEPGLGMGITSSQSEKGQVLPDQPEIKFIRRQINGYVGFANLPKQWHRRSIKNGFSFNLLCVGPDGIGKTTLMKTLFNNDDIEANLVKDYEEELANDQEEEEGQGEGHENQSQEQRHKVKIKSYESVIEENGVKLNLNVIDTEGFGDFLNNDQKSWDPIIKEIDSRFDQYLDAENKINRHSINDKRIHACLYFIEPTVHYLKPLDLKFMQSVYEKCNLIPVIAKSDILTDEEILSFKKTIMNQLIQSNIELFKPPIYSNDDAENSHLSERLFSSLPYAVIGSNDIVENYSGNQVRGRSYPWGVIEVDNDNHSDFNLLKNLLIKQFMEELKERTSKILYENYRSSKLAKLGIKQDNSVFKEFDPISKQQEEKTLHEAKLAKLEIEMKTVFQQKVSEKEKKLQKSETELFARHKEMKEKLTKQLKALEDKKKQLELSINSASPNVNHSPVPTKKKGFLR
As for B1, the binding result in data set [3] was “binds”.

B2: Cdc11 (natural protein, S. cerevisiae, UniProt P32458 1-415, looked up)
chain: MSGIIDASSALRKRKHLKRGITFTVMIVGQSGSGRSTFINTLCGQQVVDTSTTILLPTDTSTEIDLQLREETVELEDDEGVKIQLNIIDTPGFGDSLDNSPSFEIISDYIRHQYDEILLEESRVRRNPRFKDGRVHCCLYLINPTGHGLKEIDVEFIRQLGSLVNIIPVISKSDSLTRDELKLNKKLIMEDIDRWNLPIYNFPFDEDEISDEDYETNMYLRTLLPFAIIGSNEVYEMGGDVGTIRGRKYPWGILDVEDSSISDFVILRNALLISHLHDLKNYTHEILYERYRTEALSGESVAAESIRPNLTKLNGSSSSSTTTRRNTNPFKQSNNINNDVLNPASDMHGQSTGENNETYMTREEQIRLEEERLKAFEERVQQELLLKRQELLQREKELREIEARLEKEAKIKQEE
On to B2, for which the binding result in data set [4] is “binds”. In data set [5], this molecule returned a percent of particles that are heptamers of 31.5%, a percent of particles that are hexamers of 18.5% and a percent of particles that are octamers of 50%.

B3: Cdc3(R111A R112A K115A)–Cdc11–(His)6–Cdc12-Cdc10 complex (complex, S. cerevisiae)
chain 1: B1 chain with R111A, R112A, K115A, V261G
chain 2: B2 chain
chain 3: MSAATATAAPVPPPVGISNLPNQRYKIVNEEGGTFTVMLCGESGLGKTTFINTLFQTVLKRADGQQHRQEPIRKTVEIDITRALLEEKHFELRVNVIDTPGFGDNVNNNKAWQPLVDFIDDQHDSYMRQEQQPYRTKKFDLRVHAVLYFIRPTGHGLKPIDIETMKRLSTRANLIPVIAKADTLTAQELQQFKSRIRQVIEAQEIRIFTPPLDADSKEDAKSGSNPDSAAVEHARQLIEAMPFAIVGSEKKFDNGQGTQVVARKYPWGLVEIENDSHCDFRKLRALLLRTYLLDLISTTQEMHYETYRRLRLEGHENTGEGNEDFTLPAIAPARKLSHNPRYKEEENALKKYFTDQVKAEEQRFRQWEQNIVNERIRLNGDLEEIQGKVKKLEEQVKSLQVKKSHLK
chain 4: MDPLSSVQPASYVGFDTITNQIEHRLLKKGFQFNIMVVGQSGLGKSTLINTLFASHLIDSATGDDISALPVTKTTEMKISTHTLVEDRVRLNINVIDTPGFGDFIDNSKAWEPIVKYIKEQHSQYLRKELTAQRERFITDTRVHAILYFLQPNGKELSRLDVEALKRLTEIANVIPVIGKSDTLTLDERTEFRELIQNEFEKYNFKIYPYDSEELTDEELELNRSVRSIIPFAVVGSENEIEINGETFRGRKTRWSAINVEDINQCDFVYLREFLIRTHLQDLIETTSYIHYEGFRARQLIALKENANSRSSAHMSSNAIQR
Consider B3, for which the binding result in data set [4] is “binds”.

B4: Cdc3–Cdc11–(His)6–Cdc12-Cdc10(H24A R25A K28A K29A) complex (complex, S. cerevisiae)
chain 1: B1 chain with V261G
chain 2: B2 chain
chain 3: B3 chain 3
chain 4: B3 chain 4 with H24A, R25A, K28A, K29A
As to B4, the “percent of particles that are heptamers” value in data set [6] is 14.2%.

B5: Cdc3–Cdc11–(His)6–Cdc12-Cdc10(I22E) complex (complex, S. cerevisiae)
chain 1: B1 chain with V261G
chain 2: B2 chain
chain 3: B3 chain 3
chain 4: B3 chain 4 with I22E
On to B5, for which, in data set [6], the “percent of particles that are heptamers” value was determined as 24.9%.

B6: Cdc3(K90A R93A R94A)–Cdc11–(His)6–Cdc12-Cdc10 complex (complex, S. cerevisiae)
chain 1: B1 chain with K90A, R93A, R94A, V261G
chain 2: B2 chain
chain 3: B3 chain 3
chain 4: B3 chain 4
As for B6, the binding result in data set [4] is on record as “binds”.

B7: (His)6–Cdc12-Cdc11-Cdc3(G261V) complex (complex, S. cerevisiae)
chain 1: B3 chain 3
chain 2: B2 chain
chain 3: B1 chain
B7: the binding result in data set [3] is “binds”.

B8: Cdc10 (natural protein, S. cerevisiae, UniProt P25342 1-322, looked up)
chain: B3 chain 4
Regarding B8, the binding result in data set [7] is listed as “binds”.

B9: Cdc10(H24A R25A K28A K29A) (natural protein, S. cerevisiae, UniProt P25342 1-322, looked up)
chain: B3 chain 4 with H24A, R25A, K28A, K29A
For B9, the binding result in data set [7] was “binds”.

B10: Cdc10(I22E) (natural protein, S. cerevisiae, UniProt P25342 1-322, looked up)
chain: B3 chain 4 with I22E
Take B10: the binding result in data set [7] is listed as “binds”.
